We go through 3 substances from publication PMC3537504.

The target in assay [1] is MBP-αII-cardi+ (MBP fusion of repeats 18-21 of αII-spectrin with the 21-amino acid cardi+ insert) (rat). As to the kind of experiment: far-Western, overlay or dot blot.
For assay [2], the target named is GST-βII-spectrin-1-4 (GST fusion of repeats 1-4 of βII-spectrin) (rat). The assay is described as follows: SPR. In general terms: Surface plasmon resonance follows binding to a sensor surface in real time, without labels.

A word on the Kd: it is the equilibrium constant for the complex coming apart.

In assay [1], “GST-βII-spectrin-1-4 (GST fusion of repeats 1-4 of βII-spectrin) (domain or fragment)” yielded a binding relative to the αII-cardi− protein (blot overlay, densitometry) of 0.5 fold.

In assay [2], “MBP-αII-cardi+ (MBP fusion of repeats 18-21 of αII-spectrin with the 21-amino acid cardi+ insert) (domain or fragment)” registered a Kd of 1090 pM and a fold lower binding (response units at saturation) than MBP-αII-cardi− of 2 fold.

The substance “MBP-αII-cardi− (MBP fusion of repeats 18-21 of αII-spectrin without the cardi+ insert) (domain or fragment)” yielded a dissociation constant Kd in assay [2] of 570 pM.
